Measurements taken from PMC9751095 (2022).

Target: T1, Myc-TRAP1 (human, UniProt Q12931 60-704)
T1 chain: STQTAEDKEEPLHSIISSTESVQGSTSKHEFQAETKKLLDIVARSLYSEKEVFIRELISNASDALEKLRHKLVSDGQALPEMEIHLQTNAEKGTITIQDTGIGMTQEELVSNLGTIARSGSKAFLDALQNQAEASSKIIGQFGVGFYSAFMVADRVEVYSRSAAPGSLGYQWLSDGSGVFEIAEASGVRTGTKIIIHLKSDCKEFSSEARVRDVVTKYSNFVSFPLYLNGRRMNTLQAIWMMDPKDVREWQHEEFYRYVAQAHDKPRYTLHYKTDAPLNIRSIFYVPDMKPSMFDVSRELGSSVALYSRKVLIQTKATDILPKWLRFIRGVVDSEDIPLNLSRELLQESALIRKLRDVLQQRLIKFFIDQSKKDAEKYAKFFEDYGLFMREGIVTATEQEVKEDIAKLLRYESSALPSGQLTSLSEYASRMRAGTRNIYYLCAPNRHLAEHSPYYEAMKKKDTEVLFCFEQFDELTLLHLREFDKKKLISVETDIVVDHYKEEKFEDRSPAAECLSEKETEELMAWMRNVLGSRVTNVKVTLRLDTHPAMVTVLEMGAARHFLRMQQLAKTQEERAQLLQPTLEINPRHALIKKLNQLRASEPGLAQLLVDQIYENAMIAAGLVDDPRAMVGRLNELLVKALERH
Assay: SPR; printed as "Ka 69.8 µM"

B1: recombinant mature human OSCP (natural protein)
chain: FAKLVRPPVQVYGIEGRYATALYSAASKQNKLEQVEKELLRVAQILKEPKVAASVLNPYVKRSIKVKSLNDITAKERFSPLTTNLINLLAENGRLSNTQGVVSAFSTMMSVHRGEVPCTVTSASPLEEATLSELKTVLKSFLSQGQVLKLEAKTDPSILGGMIVRIGEKYVDMSVKTKIQKLGRAMREIV
Kd: 69.8 µM
